Here are results for one substance from publication doi:10.1101/2025.11.18.686377.

This experiment addresses NGF^painless (NGF variant bearing R100E+P61S mutations) (human). The experiment in a line: native MS.

Broadly, the stoichiometry N is the number of molecules, sites or subunits per partner or assembly. As for “NGF^painless (NGF variant bearing R100E+P61S mutations) (ligand)”, the stoichiometry N was 2.
